Where “and” joins values, the source holds several entries; their conditions need not be identical. Equal entries are not always repeated.
Assays:
[1] = target: T1, thymidylate synthase (TS) (Homo sapiens, UniProt P04818); assay: Thymidylate synthase activity in treated TSU cells; format: cell-based; details: TSU carcinoma cells, 1 μM
T1 construct: endogenous in cells; host or cells: Hep G2
Procedure: Thymidylate synthase inhibition results in insufficient thymidylate levels for DNA replication and can lead to intracellular signaling processes that ultimately lead to cell death. The activity of this paramount enzyme was determined based on the methods of Keyomarsi et al. (J. Biol. Chem., 268, 15142-15149 (1993)). Briefly, 10^5 Hep G2 or TSU cells were grown in culture for 48 h and then the medium was made to a concentration of 1 μM with either po 1-mer or unconjugated 5FdU. At regular intervals (24 hrs, 48 hrs, 72 hrs and 96 hrs) after treatment, the medium was removed and replaced with medium containing deoxyuridine/[^3H]-deoxyuridine mixtures. Cells were incubated at 37° C. for 30 min. Cell medium was then removed and precipitated with charcoal. The supernatant was then counted to determine the presence of [^3H]-H2O. The measurable release of [^3H] as [^3H]-H2O from deoxyuridine, 5′-monophosphate (dUMP) substrate reflects thymidylate synthase activity.

[2] = Serum stability of po 1-mer conjugate, HPLC method (a), column 1; format: in vitro ADME; details: 37° C.; for Average Peak area / Trial Peak area: human serum
Procedure: Studies were carried out at physiological conditions. The analyses were accomplished using reversed-phase HPLC and PAGE methods. The raw data are presented in table format (Tables 1, 2 and 3). The serum half-life calculated is t1/2=1/k (0.693), derived from the [A]=[A0]e^−kt, where [A0] is the original amount of substrate, [A] is the measured substrate level, t is time (min), and k is the first-order rate constant.
(a) Reaction Conditions: 50 μl of human serum were added to 24 nmoles of HPLC purified po 1-mer Conjugate and incubated at 37° C. for allotted time periods (0 min, 60 min, 180 min, 360 min). Column 1: flow 1.0 ml/min, Rainin MicroSorb C18 reversed-phase column HPLC gradient: 100% NH4OAc for 10 min, then 0→100% CH3CN in 25 min. (0.1 M NH4OAc) (Table 1).

[3] = system: alpha-fetoprotein (AFP); assay: Serum AFP levels in tumor-bearing nude mice; format: in vivo, human; details: for level of AFP: 15 mg/kg weekly
Description: Xenotransplanted tumors have been previously shown to be responsive to 5FU chemotherapy as assayed by direct physical measurement of the tumor (Houghton et al., Biochem. Pharmacol., 36, 1285-1289 (1987)), histological changes and biochemical measurements, such as alpha-fetoprotein (AFP) levels (Lemoine et al., Pathol. Biol. (Paris), 47, 903-910 (1999)) and thymidylate synthase levels (Peters et al., J. Clin Oncol., 12, 2035-2042 (1994)). The xenograft tumors in nude mice are a widely used model for tumor studies that allows for direct measurement of the growth of human tumors. Male CD-1 nude mice (6-8 weeks old, 20-22 g in weight) were used for these bioefficacy studies. An injection of 10^8 Hep G2 cells was made subcutaneously into the subcapsular region of each mouse. Mice were observed daily for tumor formation. After tumors emerged, they were measured twice a week in two dimensions with sliding calipers. When the tumors reached a weight of 100 mg in weight as determined by the formula: [(weight, mg)=(length (mm)×width (mm))^2/2], treatment was initiated (Geran et al., Cancer Chemother. Rep., 3, 51-61 (1972)). Initially, mice were treated with 10 mg/kg dose once/week for 8 weeks. Subsequently, separate cohorts of mice were treated with 15 mg/kg weekly for 8 weeks and finally 10 mg/kg twice weekly for 8 weeks. The impact of treatment upon tumor growth was judged by direct measurement as described above. In addition, tumor progression was tracked by serological measurements, such as AFP levels. AFP levels were assayed weekly following each injection. Blood was taken retro-orbitally from each mouse. AFP levels were assayed immunochemically, using kits supplied by Abbott Laboratories (Waukegan, Ill.) and based on the methods of Wang et al. (Cancer Res., 50, 869s-872s (1990)). Measurements of AFP levels were intended to complement direct physical measurement as an indicator of tumor progression. Generally, serum AFP levels behave as if they reflect tumor mass. […]

[4] = target: T2, TS (Homo sapiens, UniProt P04818); assay: TS activity in tumor of xenografted mice; format: in vivo, CD-1 nude mice; details: treated
T2 construct: from tissue; host or cells: subcutaneous Hep G2 xenograft tumour from CD-1 nude mice
Procedure: (§1) Initial effects of po 1-mer treatment were noticed after about 5 weeks. Overall, however, tumors continued to grow after this point, but at a slower rate than the control. For instance, at 8 weeks post po 1-mer treatment, the average tumor weight of xenografted human hepatomas in nude CD-1 mice was about 7 g, whereas the average tumor weight of the saline control was about 15 g. Histological analysis was performed after 8 weeks in order to compare the tumors of the control cohort with the tumors of po 1-mer-treated nude mice. […] This weight loss may then be due to the tumor burden, rather than the therapeutic treatment, and was continued through week 8.
(§2) After the treatment was completed, tumors were analyzed both histologically and for TS activity. […] Therefore, it can be deduced that increasing the dose of po 1-mer increased the efficacy without increasing systemic toxicity.

[5] = target: T3, TS (Mus musculus, UniProt P07607); assay: TS activity in liver of xenografted mice; format: in vivo, CD-1 nude mice; details: treated
T3 construct: from tissue; host or cells: liver of CD-1 nude mice
Procedure: as §1, §2

[6] = Stability of 1-mer conjugates in RPMI 1640+10% FCS (PAGE); format: in vitro ADME; details: up to 8 hrs, PAGE analysis
Procedure: Initially, the stability of the two neoglycoconjugates was assessed in RPMI 1640+10% FCS. […] In terms of cellular uptake, the po-linked conjugate at a dose of 1 μM was taken up rapidly in a progressive manner by Hep G2 cells in vitro to the extent of 24.75 pmoles/10^6 cells at 480 min. The rate of cellular uptake was next analyzed with respect to the administered dose of the conjugate. […] This amount doubled within the next 30 min and peaked at 25 pmoles/million cells at 480 min. […] While the administration of 4 μM conjugate led to a linear increase of conjugate uptake with respect to time, the rate at which cellular uptake occurred upon the administration of 8 μM conjugate rose sharply at 120 min.

T2 sequence (P04818 2-313 limits assumed): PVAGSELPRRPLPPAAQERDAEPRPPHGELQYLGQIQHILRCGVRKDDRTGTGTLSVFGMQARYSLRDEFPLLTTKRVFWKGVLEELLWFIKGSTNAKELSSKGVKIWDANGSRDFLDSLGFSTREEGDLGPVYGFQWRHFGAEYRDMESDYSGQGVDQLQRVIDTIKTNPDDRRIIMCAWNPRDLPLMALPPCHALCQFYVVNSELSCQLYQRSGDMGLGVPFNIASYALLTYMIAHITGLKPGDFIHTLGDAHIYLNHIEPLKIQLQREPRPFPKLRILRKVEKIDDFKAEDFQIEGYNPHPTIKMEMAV
T3 sequence (P07607 whole entry): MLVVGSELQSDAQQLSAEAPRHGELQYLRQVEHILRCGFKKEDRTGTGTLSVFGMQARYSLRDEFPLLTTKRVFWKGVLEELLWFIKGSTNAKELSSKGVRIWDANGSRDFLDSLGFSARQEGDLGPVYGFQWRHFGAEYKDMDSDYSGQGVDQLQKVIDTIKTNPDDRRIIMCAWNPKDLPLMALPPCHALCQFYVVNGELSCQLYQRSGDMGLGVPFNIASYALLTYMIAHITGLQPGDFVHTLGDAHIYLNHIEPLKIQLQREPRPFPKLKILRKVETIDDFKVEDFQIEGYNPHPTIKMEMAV
T1 sequence (P04818 2-313 limits assumed): as the sequence (P04818 2-313 limits assumed) above

CC(=O)N[C@H]1[C@H](OCCCCCCNC(=O)CC[C@H](NC(=O)CC[C@H](NC(=O)[C@H](Cc2ccc(O)cc2)NC(=O)C2CCC(CN3C(=O)CC(SCCCCCCOP(=O)(O)OC[C@H]4O[C@@H](n5cc(F)c(=O)[nH]c5=O)C[C@@H]4O)C3=O)CC2)C(=O)NCCCCCCO[C@@H]2O[C@H](CO)[C@H](O)[C@H](O)[C@H]2NC(C)=O)C(=O)NCCCCCCO[C@@H]2O[C@H](CO)[C@H](O)[C@H](O)[C@H]2NC(C)=O)O[C@H](CO)[C@H](O)[C@@H]1O (stereo partly drawn) [po 1-mer, YEE(ahGalNAc)3-SMCC-poFU]
inhibition of TS activity [1]: no inhibitory effect | Average Peak area ([2]; 0 min): 17.78 | Trial Peak area ([2]; 0 min, listed as po 1-mer Conjugate): 17.65 and 17.92 | Average Peak area ([2]; 60 min): 13.77 | Trial Peak area ([2]; 60 min, listed as po 1-mer Conjugate): 15.11 and 12.43 | Average Peak area ([2]; 180 min): 10.17 | Trial Peak area ([2]; 180 min, listed as po 1-mer Conjugate): 9.356 and 10.9908 | Average Peak area ([2]; 360 min): 11.4 | Trial Peak area ([2]; 360 min): 11.4 | half-life at 480 µM ([2]; human, serum, HPLC (a), read-out: serum t1/2): 9.62 h | AFP measurements ([3]; 10 mg/kg twice weekly, week 6): below the limits of detection | level of AFP ([3]; after 3 weeks of treatment): less than 200 μg/ml | level of AFP ([3]; week 8): below the level of detection | TS activity, COUNTS/MG PROTEIN ([4]; weekly 10 mg/kg): 17641 counts/mg protein | TS activity, COUNTS/MG PROTEIN ([4]; weekly 15 mg/kg): 8591 counts/mg protein | TS activity, COUNTS/MG PROTEIN ([5]; weekly 10 mg/kg): 19718 counts/mg protein | TS activity, COUNTS/MG PROTEIN ([5]; weekly 15 mg/kg): 18989 counts/mg protein | stability in media containing 10% FCS [6]: stable

Reference: US7262177B2, “Conjugates of glycosylated/galactosylated peptide, bifunctional linker, and nucleotidic monomers/polymers, and related compositions and methods of use” (priority 2000, dated 2007)
